test: soluble on expression in E. coli; label from the status in PepcDB or PDB records

**Q.** Which “soluble on expression in E. coli” value does the source give for “MSLQKNNLHIIIAEDDFDDADMICETFNQNPNFGKVSLVANGEELLNYLKNASNESPDVILTDINMPIVDGIEALQQILNNSDLKNIPCFVYSTSINPSYKEKCDDLGVKAYLIKPYSFEAFAEIPKTILSIIQAEGHHHHHH” here?
**A.** The value was “soluble”.

**Q.** Which “soluble on expression in E. coli” value does the source give for “MSLQLRLALNQIDSTVGDIAGNAEAILRWTRHSAEQGAHLVAFPEMALTGYPVEDLALRSSFVEASRTALRELAARLAEEGFGELPVLVGYLDRSESAQPKYGQPAGAPRNAAAVLHRGRVALTFAKHHLPNYGVFDEFRYFVPGDTMPIVRLHGVDIALAICEDLWQDGGRVPAARSAGAGLLLSVNASPYERDKDDTRLELVRKRAQEAGCTTAYLAMIGGQDELVFDGDSIVVDRDGEVVARAPQFSEGCVVLDLDLPAAEAEPPTGVVDDGLRIDRLVISEEPLPAYEAELAGGYADRLDADEEVYSALVVGLRAYVAKNGFRSVLIGLSGGIDSALVAAIACDALGAQNVYGVSMPSKYSSDHSKGDAAELARRTGLNFRTVSIEPMFDAYMASLGLTGLAEENLQSRLRGTTLMAISNQEGHIVLAPGNKSELAVGYSTLYGDSVGAYGPIKDVYKTSIFRLAEWRNRAAAERGQTPPIPEASITKPPSAELRPGQVDTDSLPDYPVLDAILELYVDRDTGADAIVAAGYDRELVVKTLRMVDTAEYKRRQYPPGTKISAKGFGKDRRLPITNRWREGHHHHHH” here?
**A.** Its value is “soluble”.

**Q.** With “MSLQNAYWLTNVRLETGYKFNNEVVTGTETALHHLLIQDGKIEKIVLADVPLQTEYETKDAKELLVLPSFVENHFHLDKTKLGGPWEACTPVKNIIERLELEQQELPILAQTTGERAELLLRNILNAGSTHIRTHVNIDPYIGLKNLESVRQTLENMKDAFTYEIVAFPQHGLLRTEAHSLMREAMKMGATLVGGVDPATVDNNIEKSLFDMMEIAVEANADVDLHLHDAGHLGIYTIKKLAQYTEEASWDGRVAVSHAFSLGDVSKEEGADMADLLAERGMSIITTVPINRNMPPVPLLTEKGVPISLGCDSMFDSWGPFGNADIFERVGRLAEKYRWMDEKSLASSLAYITGGKTPLDQEGNQVWPKVGDKADFVFLQATCSAEAIARRAKRPAVMRDGKIVAGSLQHVQGVLIEGHHHHHH” as the sequence, how does the “soluble on expression in E. coli” value read?
**A.** The value was “soluble”.

**Q.** Which “soluble on expression in E. coli” value does the source give for “MSLQPVPDAGPWGDYLCDSPWALINSSIYAMKEIEPEPDFILWTGDDTPHVPDEKLGEAAVLEIVERLTKLIREVFPDTKVYAALGNHDFHPKNQFPAGSNNIYNQIAELWKPWLSNESIALFKKGAFYCEKLPGPSGAGRIVVLNTNLYYTSNALTADMADPGQQFQWLEDVLTDASKAGDMVYIVGHVPPGFFEKTQNKAWFREGFNEKYLKVVRKHHRVIAGQFFGHHHTDSFRMLYDDAGVPISAMFITPGVTPWKTTLPGVVNGANNPAIRVFEYDRATLSLKDMVTYFMNLSQANAQGTPRWELEYQLTEAYGVPDASAHSMHTVLDRIAGDQSTLQRYYVYNSVSEGHHHHHH” here?
**A.** The value was “soluble”.

**Q.** For “MSLRAVVTMGHGDLDQLVLHPDWPRPDPEPGEVLIRVGACGLNNTDVNTRSGWYSKTVTDATTGGAFDEVGEDDPTWGGAPITFPRIQGADVCGTIVAVGAGVDAARIGERVITDGWLRDADAPEDMNKTGYFGSERNGGFAEYTTIPSSNALDVNSTLSDAELATFSCSYSTAEGMLTRARVTADDTVLIPGASGGVGGALVQLAKRRGARVIAIASEGKHSDVAALGPDMILPRAPAHLRSALGDERITVVADVVGGPYWPSLIDILERGGRYTCSGAIAGPMVSLDLRTFYLRDLTFTGSTVIDLEVMPNIVRYIEEGAIKPSLAATYPLEDLRAAQSAFIAKEHTGNIVVTEGHHHHHH”, which “soluble on expression in E. coli” value is on record?
**A.** Its value is “not soluble”.

**Q.** With “MSLRDESRLDKYVIKEILRINRHLPRRRKTLEELLREERPHVVNRDGTKHYFDRDELERLADILPRYLHGRLKLPILIELGYSGAAVIRGKAEVRVVCEVLGEEWRFSQDRVELNMLDVRKLRREFPTATQYMFSTEYIMGRPKVERREGHHHHHH” as the sequence, how does the “soluble on expression in E. coli” value read?
**A.** The value was “soluble”.

**Q.** For “MSLRELQNALYFSEVVFGPNLEKIVGEKRLNFWLKLIGEDPENLKEFLSRKGNSFEEQTLPEKEAIVPNRLGEEALEKVREELEFLNTYSTKHVRRVKELGVQIPFEGILLPFISMYIEKFQQQQLRKKIGPIHEEIWTQIVQDITSKLNAILHRTLILELNVARVTSQLKGDTPEERFAYYSKTYLGKREVTHRLYSEYPVVLRLLFTTISHHISFITEILERVANDREAIETEFSPCSPIGTLASLHLNSGDAHHKQRTVTILEFSSSLKLVYKPRSLKVDGVFNGLLAFLNDRTGEVIKDQYCPKVLQRDGYGYVEFVTHQSCQSLEEVSDFYERLGSLMSLSYVLNSSDFHFENIIAHGPYPVLIDLETIIHNTADSSEETSTAMDRAFRMLNDSVLSTGMLPSSIYYRDQPNMKGLNVGGVSKSEGQKTPFKVNQIANRNTDEMRIEKDHVTLSSQKNLPIFQSAAMESVHFLDQIQKGFTSMYQWIEKNKQEFKEQVRKFEGVPVRAVLRSTTRYTELLKSSYHPDLLRSALDREVLLNRLTVDSVMTPYLKEIIPLEVEDLLNGDVPYFYTLPEERALYQEASAINSTFFTTSIFHKIDQKIDKLGIEDHTQQMKILHMSMLASNANHYADVADLEGHHHHHH”, which “soluble on expression in E. coli” value is on record?
**A.** The value was “soluble”.

**Q.** Which “soluble on expression in E. coli” value does the source give for “MSLRIGVIGLGRIGTIHAENLKMIDDAILYAISDVREDRLREMKEKLGVEKAYKDPHELIEDPNVDAVLVCSSTNTHSELVIACAKAKKHVFCEKPLSLNLADVDRMIEETKKADVILFTGFNRRFDRNFKKLKEAVENGTIGKPHVLRITSRDPAPPPLDYIRVSGGIFLDMTIHDFDMARYIMGEEVEEVFADGSVLVDEEIGKAGDVDTAVVVLRFKSGALGVIDNSRRAVYGYDQRIEVFGSKGRIFADNVRETTVVLTDEQGDRGSRYLYFFLERYRDSYLEELKTFIKNVKSGEPPAVSGEDGKMALLLGYAAKKSLEEKRSVKLEEVIGEGHHHHHH” here?
**A.** Its value is “soluble”.

**Q.** For “MSLRIPTKPSPVFDAATDPAGSGKDLGNLPDWDLSDLYAAPDAPEVTRDLDRLKTLCADFAERYEGKLADLDAQGMLTCVTAHEEIDRIAGRLMSYAGLRYYQVTTDGERAQFLQNCQEKLTDYTTPLVFFSLEINRIPDDKLDALFEANADLARYKPIFDRLRAMRPYQLSDELEKFLHDQSAVGSAAWNKLFDETMARLTFSPEGEDEDLSLEATLNLLSEQKRSRREAGARELARVFGENLPLFARVHNTLAKEKEIEDRWRKMPSAQTARHLSNHVEPEVVEALRNAVVDAYPKLSHRYYALKAKWLGLETMEVWDRNAPLPMEEERVIDWPKAREMVLSAYAGFDPEMAAIAEPFFDRGWIDAGVKPGKAPGAFAHPTVTDAHPYVLLNYLGKPRDVMTLAHELGHGVHQVLAAGQGELLADTPLTLAETASVFGEMLTFRKLLAEAPDAAQKKVLLAGKVEDMINTVVRQIAFYDFECKLHEARRTRGELTTSQINELWMSVQGESLGPAFTFMDGYETFWSYIPHFVHSPFYVYAYAFGDGLVNALYAVYEEGDPDFQKKYFEMLKAGGSKHHSELLKPFGLDASDPKFWDKGLSMISGFIDELEAMEDEGHHHHHH”, which “soluble on expression in E. coli” value is on record?
**A.** The value was “soluble”.

**Q.** Which “soluble on expression in E. coli” value does the source give for “MSLRITRIRLYKTDLPYVDGSYGWGAGNAITVARASVVVIDTDAGLQGCGEFTPCGENYMIAHSEGVDAFARLAAPQLLGQDPRQVARMERLMDHLVQGHGYAKAPFDAAFWDILGQATGQPVWMLLGGKLCDGAPMYRVAPQRSEAETRAELARHRAAGYRQFQIKVGADWQSDIDRIRACLPLLEPGEKAMADANQGWRVDNAIRLARATRDLDYILEQPCRSYEECQQVRRVADQPMKLDECVTGLHMAQRIVADRGAEICCLKISNLGGLSKARRTRDFLIDNRMPVVAEDSWGGEIASAAVAHFAASTPEEFLINSTDLMNYNTRSTGLGGPTVHQGRLYASDTPGLGVTPDFNSLGAPVADWALPEGHHHHHH” here?
**A.** Its value is “soluble”.

**Q.** For “MSLRKEPYLLVFGASVVDVFGFSKASYRPYNSTPGHVKISFGGVCRNIAENMARVGVNTNFMSILGNDEHGKSIVEHSKKIGYHMDDSMVIEGGSTPTYLAILDENGEMVSAIADMKSIGAMNTDFIDSKREIFENAEYTVLDSDNPEIMEYLLKNFKDKTNFILDPVSAEKASWVKHLIKDFHTIKPNRHEAEILAGFPITDTDDLIKASNYFLGLGIKKVFISLDADGIFYNDGVSCGKIKATEVDVKNVTGAGDSFVAGLGYGYMNKMPIEDIVKFAMTMSNITISHEETIHPDMALDTVLAKLEKTTWEEEKYDLNEGHHHHHH”, which “soluble on expression in E. coli” value is on record?
**A.** The value was “soluble”.

**Q.** Which “soluble on expression in E. coli” value does the source give for “MSLRKTVAFGFVGTVLDYAGRGSQRWSKWRPSLCICQQESLVIDRLELLHDARSRSLFETLKRDIASVSPETEVVSVEIELHNPWDFEEVYACLHDFARGYEFQPEKEDYLIHITTGTHVAQICWFLLAEARYLPARLIQSSPPRKKEQPRGAGEVTIIDLDLSLYNAIASRFAEERQQTLDEGHHHHHH” here?
**A.** Its value is “soluble”.

From the DeepSol protein solubility set
